B1: T. cruzi PMM enzyme (Trypanosoma cruzi strain CL Brener) (protein)
chain: MKKVLLLFDIDGTLTPPRLSQPDEVREVIRRAKSAGFTVGTVGGSDLAKQIEQLGEDVFQQFDYVFAENGLLAYKHGKEIHRQNLLKELGNERIVKFVRRALRLLSELDIPVQRGTFIEYRNGMINVCPIGRNCTQSERDEFEVYDKEHHVREKLIKELQNSFPDYGLKYSIGGQISFDVFPVGWDKSYCLRFVENDFDEIHFFGDKTHAGGNDYEIYTDKRIIGHAVKSYKDTVDEVNKLISSK
B2: T. cruzi GDP-MP enzyme (Trypanosoma cruzi strain CL Brener) (protein)
chain: MSEEKKSVANSKGMRAVILVGGYGTRLRPLTLTMPKPLVPFCNKPIIVHQVEALRDAGVTEVILAVAYRSDAMRKNMDYWSKELGVSFVFSLEEEPLGTAGPLALARDILLQDDQPFFVLNADITCRFPLRELLSFHQKSGKEGTIAVTKVTDWQKYGVVVFDEATGVIDQFVEKPKNFVGDRINAGIYVFNKSVLNRIKVEKTSIETQVFPQMASAKQLCAFILEGFWMDIGVPKDYIEGVGKYLRSLNGTPKESQEVYGFGQAHKTDDFTVIGSVIIDPSAKIGKGCVIGPFATIGPGCVIGPTSRIRNSAILDESTIGKGTLVDSSIIGWKSRVGSWCRVVNNTVLGEDVEVKDELFLNGIKVLPNKSILQSYHEPEVVM

Legend:
[1] = substrate: O=C[C@@H](O)[C@@H](O)[C@H](O)[C@H](O)COP(=O)(O)O; test: Km determination with the PMM-GDP-MP assay; format: biochemical, Trypanosoma cruzi; conditions: other: PMM substrate and cofactor, mean of three independent replicates, pH 7.5
Experimental: (§1) All enzyme and substrate solution dilutions were prepared in assay buffer comprising 25 mM Tris-HCl (pH 7.5), 150 mM NaCl, 4 mM MgCl2, 0.01% (vol/vol) Tween 20, and 1 mM dithiothreitol in ultrapure water. Biochemical assays were performed in a 50-μl final assay volume using clear 384-well assay microplates (Greiner, catalog no. 781101) at room temperature. Unless stated otherwise, all reagent concentrations are written as final biochemical assay concentrations, and DMSO or compounds were added to assay plates using Echo acoustic dispensers (Labcyte). Reagent addition for high-throughput screening assays was performed using an Xrd-384 liquid dispenser (FluidX, UK) and a BioFill Solo/Xrd-384 16 channel resin nozzle (2.00 to 200 μl) tubing cartridge (FluidX, catalog no. 34-1005-S). Biochemical reactions were terminated by addition of 50 μl of BIOMOL Green (Enzo Life Sciences, catalog no. BML-AK111-1000) reagent, after which absorbance was measured following a 30-min incubation at room temperature. Absorbance measurements were performed at 650 nm using a PHERAStar microplate reader (BMG Labtech, Germany), and the data are represented as relative absorbance units (RAU). Linear and nonlinear regression was performed using the SigmaPlot 12.5 software, unless stated otherwise.
(§2) To measure the activity of the T. cruzi PMM enzyme, a PMM-GDP-MP biochemical assay system was used. […]

[2] = substrate: O=P(O)(O)OC[C@H]1O[C@H](OP(=O)(O)O)[C@H](O)[C@@H](O)[C@@H]1O; test: Km determination with the PMM-GDP-MP assay; format: biochemical, Trypanosoma cruzi; conditions: other: PMM substrate and cofactor, mean of three independent replicates, pH 7.5
Experimental: as §1, §2

[3] = substrate: O=P(O)(O)O[C@H]1O[C@H](CO)[C@@H](O)[C@H](O)[C@@H]1O; test: Km determination with the GDP-MP assay; format: biochemical; conditions: other: GDP-MP substrates; mean of three independent replicates; pH 7.5
Experimental: as §1, with “otherwise. […]” for “otherwise.”

[4] = substrate: Nc1nc2c(ncn2[C@@H]2O[C@H](COP(=O)(O)OP(=O)(O)OP(=O)(O)O)[C@@H](O)[C@H]2O)c(=O)[nH]1; test: Km determination with the GDP-MP assay; format: biochemical; conditions: other: GDP-MP substrates; mean of three independent replicates; pH 7.5
Experimental: as §1, with “otherwise. […]” for “otherwise.”

Row | Protein | Km [1] | Km [2] | Km [3] | Km [4]
1 | B1 | 48.2 µM | 7.8 µM | – | –
2 | B2 | – | – | 13.3 µM | 40.7 µM

Reference: paper PMC6761512, “Trypanosoma cruzi Phosphomannomutase and Guanosine Diphosphate-Mannose Pyrophosphorylase Ligandability Assessment” (Antimicrobial Agents and Chemotherapy, 2019)
